Assay results published in publication PMC3967714 (Cell reports, 2013).
Substitutions are numbered along the chain they refer to. Where no end group is shown, it is not given here.

Key:
Dido3 PHD finger [1] = molecular target: T1, Dido3 PHD finger (Homo sapiens, UniProt Q9BTC0); experiment: 1H,15N HSQC NMR titration of 15N-labeled Dido3 PHD with histone peptides; assay type: binding; conditions: for chemical-shift changes in 1H,15N HSQC spectra: peptides aa 1–12 of H3 (H3K4me0: aa 1–19)
T1 sequence (Q9BTC0 266-325): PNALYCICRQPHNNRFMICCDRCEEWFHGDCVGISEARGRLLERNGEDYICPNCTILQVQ

Dido3 PHD finger [2] = molecular target: T1, Dido3 PHD finger; assay type: binding; conditions: wild-type Dido3 PHD, tryptophan fluorescence and NMR, peptides aa 1–12 of H3
Dido3 PHD E289A = molecular target: T2, Dido3 PHD E289A (UniProt Q9BTC0-4 266-325, E289A); experiment: other fluorescence titration + NMR titration
T2 sequence: T1 sequence (Q9BTC0 266-325) with E24A

Dido3 PHD D286A = molecular target: T3, Dido3 PHD D286A (UniProt Q9BTC0-4 266-325, D286A); experiment: other fluorescence titration + NMR titration
T3 sequence: T1 sequence (Q9BTC0 266-325) with D21A

Dido3 PHD H277A = molecular target: T4, Dido3 PHD H277A (UniProt Q9BTC0-4 266-325, H277A); experiment: other fluorescence titration + NMR titration
T4 sequence: T1 sequence (Q9BTC0 266-325) with H12A

## H3K4me1: H3K4me1 peptide (aa 1–12 of H3)
Dido3 PHD finger [1]; peptide aa 1–12 of H3
  exchange regime on the NMR timescale: intermediate exchange regime
Dido3 PHD finger [1]
  chemical-shift changes in 1H,15N HSQC spectra: very similar pattern of chemical-shift changes
Dido3 PHD finger [2]
  weaker binding relative to H3K4me3: 85 fold

## H3K4me2: H3K4me2 peptide (aa 1–12 of H3)
Dido3 PHD finger [1]
  chemical-shift changes in 1H,15N HSQC spectra: very similar pattern of chemical-shift changes
Dido3 PHD finger [2]
  weaker binding relative to H3K4me3: 6 fold

## ARTK(Me3)QTARKSTG (peptide, UniProt P68431 2-13, looked up) [H3K4me3 peptide (aa 1-12 of H3)]
Dido3 PHD E289A
  fold decrease of binding against the wild type: ~4 fold
Dido3 PHD D286A
  fold decrease of binding against the wild type: ~200 fold
Dido3 PHD H277A
  binding result: binds
